Experimental data: publication PMC4518479, “Rad51 Paralogs Remodel Pre-synaptic Rad51 Filaments to Stimulate Homologous Recombination” (Cell, 2015)
Changes are numbered by the printed parent chain. Values belong to the binder of their own block, whether it stands above or below them.

How the values were obtained:
[1] = molecular target: T1, FLAG-tagged RIP-1 co-expressed with RFS-1 in budding yeast (C. elegans, UniProt Q21621 1-209); experiment: SEC; 3 ml Superdex 75 5/150 GL column loaded with 30 ul RFS-1/RIP-1 from single-step FLAG immunoprecipitation; size from molecular weight markers; conditions: both partners purified
T1 construct: RIP-1 of C. elegans (R01H10.5); also called RIP-1-FLAG; source: budding yeast, co-expressed with RFS-1, in extract; purified by FLAG immunoprecipitation; not shown: FLAG, C-terminal, kept
T1 sequence (looked up): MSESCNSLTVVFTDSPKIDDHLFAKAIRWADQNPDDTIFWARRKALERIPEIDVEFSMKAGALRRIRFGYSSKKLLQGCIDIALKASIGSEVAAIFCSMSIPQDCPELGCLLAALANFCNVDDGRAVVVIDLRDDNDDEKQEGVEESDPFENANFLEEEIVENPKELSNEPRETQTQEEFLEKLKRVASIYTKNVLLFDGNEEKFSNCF

RFS-1/RIP-1 [2] = molecular target: T2, RFS-1/RIP-1 (Caenorhabditis elegans, UniProt P34348;Q21621 1-245;1-209); experiment: EMSA; weak binding; nucleotide independent; EMSA: 20 mM triethanolamine-HCl pH 7.5, 8% glycerol, 1 mM DTT, 50 mM sodium acetate, 2 mM MgCl2 + 2 mM nucleotide (or 10 mM EDTA), 100 nM (nt) DNA, 25 °C; conditions: protein: recombinant; copies: 1;1; label: 5'-32P or 5'-fluorescein
T2 sequence 1: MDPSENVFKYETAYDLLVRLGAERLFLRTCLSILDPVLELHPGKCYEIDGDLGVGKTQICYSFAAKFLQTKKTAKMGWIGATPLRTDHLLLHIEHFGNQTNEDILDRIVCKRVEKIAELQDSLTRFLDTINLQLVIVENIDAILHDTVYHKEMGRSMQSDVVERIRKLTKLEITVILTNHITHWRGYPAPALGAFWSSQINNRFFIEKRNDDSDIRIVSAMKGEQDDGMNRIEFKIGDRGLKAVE
T2 sequence 2: T1 sequence (looked up)

[3] = molecular target: T3, RAD-51;RFS-1(E138A)/RIP-1 (Caenorhabditis elegans;Caenorhabditis …, UniProt Q7K7I8;P34348;Q21621 1-357;1-245;1-209, |E138A); experiment: EMSA; ATP; filament binding similar to wild type; EMSA: 20 mM triethanolamine-HCl pH 7.5, 8% glycerol, 1 mM DTT, 50 mM sodium acetate, 2 mM MgCl2 + 2 mM nucleotide (or 10 mM EDTA), 100 nM (nt) DNA, 25 °C; conditions: protein: recombinant;recombinant; tags: none (His-SUMO tag cleaved);3xFLAG at RIP-1 C-terminus; label: 5'-32P or 5'-fluorescein
T3 sequence 1: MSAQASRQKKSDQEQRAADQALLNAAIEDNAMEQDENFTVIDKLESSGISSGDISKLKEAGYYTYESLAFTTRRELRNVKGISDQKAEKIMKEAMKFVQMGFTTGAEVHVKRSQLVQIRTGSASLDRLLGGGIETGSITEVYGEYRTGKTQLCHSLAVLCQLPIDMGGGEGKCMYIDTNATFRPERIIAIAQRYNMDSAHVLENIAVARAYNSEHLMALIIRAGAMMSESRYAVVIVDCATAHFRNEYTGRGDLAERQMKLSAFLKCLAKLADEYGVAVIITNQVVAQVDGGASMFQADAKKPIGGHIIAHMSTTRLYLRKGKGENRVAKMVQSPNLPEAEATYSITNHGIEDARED
T3 sequence 2: T2 sequence 1 with E138A
T3 sequence 3: T1 sequence (looked up)

RAD-51;RFS-1(K56A)/RIP-1 = molecular target: T4, RAD-51;RFS-1(K56A)/RIP-1 (Caenorhabditis elegans;Caenorhabditis …, UniProt Q7K7I8;P34348;Q21621 1-357;1-245;1-209, |K56A); experiment: as above; conditions: protein: recombinant;recombinant; tags: none (His-SUMO tag cleaved);3xFLAG at RIP-1 C-terminus; label: 5'-32P or 5'-fluorescein
T4 sequence 1: T3 sequence 1
T4 sequence 2: T2 sequence 1 with K56A
T4 sequence 3: T1 sequence (looked up)

RFS-1(K56A)/RIP-1 = molecular target: T5, RFS-1(K56A)/RIP-1 (Caenorhabditis elegans, UniProt P34348;Q21621 1-245;1-209, K56A); experiment: EMSA; increased ssDNA affinity relative to wild type; EMSA: 20 mM triethanolamine-HCl pH 7.5, 8% glycerol, 1 mM DTT, 50 mM sodium acetate, 2 mM MgCl2 + 2 mM nucleotide (or 10 mM EDTA), 100 nM (nt) DNA, 25 °C; conditions: protein: recombinant; tags: 3xFLAG at RIP-1 C-terminus; copies: 1;1; label: 5'-32P or 5'-fluorescein
T5 sequence 1: T2 sequence 1 with K56A
T5 sequence 2: T1 sequence (looked up)

RFS-1(E138A)/RIP-1 = molecular target: T6, RFS-1(E138A)/RIP-1 (Caenorhabditis elegans, UniProt P34348;Q21621 1-245;1-209, E138A); experiment: as above; conditions: protein: recombinant; tags: 3xFLAG at RIP-1 C-terminus; copies: 1;1; label: 5'-32P or 5'-fluorescein
T6 sequence 1: T2 sequence 1 with E138A
T6 sequence 2: T1 sequence (looked up)

RAD-51;RFS-1/RIP-1 = molecular target: T7, RAD-51;RFS-1/RIP-1 (Caenorhabditis elegans;Caenorhabditis …, UniProt Q7K7I8;P34348;Q21621 1-357;1-245;1-209, |); experiment: EMSA with anti-FLAG immuno-shift; ATP; RFS-1/RIP-1 bound to RAD-51 filament; EMSA: 20 mM triethanolamine-HCl pH 7.5, 8% glycerol, 1 mM DTT, 50 mM sodium acetate, 2 mM MgCl2 + 2 mM nucleotide (or 10 mM EDTA), 100 nM (nt) DNA, 25 °C; conditions: protein: recombinant;recombinant; label: 5'-32P or 5'-fluorescein
T7 sequence 1: T3 sequence 1
T7 sequence 2: T2 sequence 1
T7 sequence 3: T1 sequence (looked up)

RFS-1/RIP-1 [4] = molecular target: T2, RFS-1/RIP-1; experiment: EMSA; EMSA: 20 mM triethanolamine-HCl pH 7.5, 8% glycerol, 1 mM DTT, 50 mM sodium acetate, 2 mM MgCl2 + 2 mM nucleotide (or 10 mM EDTA), 100 nM (nt) DNA, 25 °C; conditions: protein: recombinant; copies: 1;1; label: 5'-32P; blunt

stoichiometry N [1]: 1
B1: RFS-1 co-expressed with RIP-1 in budding yeast (natural protein, C. elegans, UniProt P34348 1-245, looked up)
chain: T2 sequence 1
notes: RFS-1 of C. elegans; see Supplemental Experimental Procedures; also called recombinant RFS-1; source: budding yeast, co-expressed with RIP-1, in extract; co-purified by FLAG immunoprecipitation

B2: 60-mer ssDNA (ssDNA)
DNA: ACGCTGCCGAATTCTACCAGTGCCTTGCTAGGACATCTTTGCCCACCTGCAGGTTCACCC
binding result (RFS-1/RIP-1 [2]): binds | binding result [3]: binds | binding result (RAD-51;RFS-1(K56A)/RIP-1): binds | binding result (RFS-1(K56A)/RIP-1): binds | binding result (RFS-1(E138A)/RIP-1): binds | binding result (RAD-51;RFS-1/RIP-1): binds

B3: 60-mer dsDNA (dsDNA)
DNA 1: B2 DNA
DNA 2: GGGTGAACCTGCAGGTGGGCAAAGATGTCCTAGCAAGGCACTGGTAGAATTCGGCAGCGT
binding result (RFS-1/RIP-1 [4]): no binding
